# Reference: the supplement of paper PMC9170038
# Tested on: K4 kissing-loop RNA reporter
# Experiment: apparent KD of K4 kissing-loop reporter; higher = weaker reporter binding
# Conditions: Eterna round: R107
# Procedure: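 RNA-MaP round R107: designed RNA switches with theophylline, tryptophan, arginine or FMN aptamers are transcribed on-chip within common flanks. They are titrated with a labelled K4 kissing-loop RNA reporter in RNA-MaP buffer (100 mM Tris pH 7.5, 80 mM KCl, 4 mM MgCl2), without ligand or with the indicated ligand. Median apparent KD per design.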
# [1] = input ligand: theophylline 20 uM
# [2] = input ligand: tryptophan 2.4 mM
# 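Also: bound reporter read as fluorescence of individual clusters on recovered sequencing chips by microscopy, with normalized cluster intensities fitted with a binding model.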
Sequence,apparent KD of K4 kissing-loop reporter (input ligand: FMN 200 uM) [µM],apparent KD of K4 kissing-loop reporter (input ligand: arginine 13.2 mM) [µM],apparent KD of K4 kissing-loop reporter (input ligand: none) [µM],apparent KD of K4 kissing-loop reporter [1] [µM],apparent KD of K4 kissing-loop reporter [2] [µM]
UCCUGCAAUCGGCCACGAAAGUGGAUUGAUACCAGAGUCGAAAGACUCCCUUGGCAGCGAGUGAUGUUCGAAGCAGGUAAAUAAA,0.465,0.38,0.502,0.514,0.432
UCCUGCAAUCUGCCACGAAAGUGGGUUGAUACCAGAGUCGAAAGACUCCCUUGGCAGCGAGUGAUGUUCGUUGCAGGUGUAUAAA [MatMod 10 - Jieux - Exclusion - Theophylline A],0.195,0.184,0.194,0.209,0.179
UCGGACCCUGGAGGAUAUGAGUCUAGUGAUGUUAGGCGGUCCAUGCGCGUGGCGCGUUAUGCCCUUUUAGAAGGCCAGGGUCCGA [#2 Exclusion - FMN B Attempt #15 (HarryS)],0.113,0.0724,0.104,0.0907,0.0846
UCUCAAGCACAGUGAUGUUGUGCUUGGGAAGGAGCGCGUGGGAACGCAGGUAGGUCGCCCGGUAAAUCGCGUCAAUGCUAGAGGC [Arg A Ex t5],0.118,0.11,0.0999,0.1,0.116
UCUGGUAUAUCUGAUACCAGAGAAUAGAAUCAAUUGAAUAUGGAGUGAUGUUCCAUAAAACUCCCUUGGCAGCAGAUAAUCAUAU [Same State Theophylline B GF 22],0.113,0.167,0.125,0.172,0.112
UGACAUUGCUCAGAUACCAGACAAGAGGAUCACCCUUGUGCCAACGUACAAAUAAUAAAUGUCCCUUGGCAGCUGAGCAAUGUCU [TheoBX 15],0.0641,0.0319,0.0582,0.0928,0.0475
UGACAUUGCUCAGAUACCAGACCUGAGGAUCACCCGGGUGCCAAACGUACAAUAAUAAAGGUCCCUUGGCAGCUGAGCAAUGUCU [TheoBX 14],0.0562,0.0397,0.103,0.0684,0.0839
UGACUGGACUGAAGGAGCGCGAAACUCCUAGUGAUGUUAGGACAACGAGACAAAGUCUCGACGCAGGUAGGUCGCAGUCUAGUCU,0.148,0.111,0.131,0.144,0.132
UGACUGGACUGAAGGAGCGCUAAAACUCCUAGUGAUGUUAGGAAAACGAGACAAAGUCUCGAGCAGGUAGGUCGCAGUCUAGUCU [ArgBS 21 #SwitchBubble #StaticStem],0.142,0.119,0.131,0.148,0.128
UGACUGGACUGAAGGAGCGUUGAAGGAGCGUAGUGAGUGAUGUUCACUACAGGUAGGUCGCAGCAGGUAGGUCGCAGUCUAGUCU [ArgBS 25 #DoubleAptamer #SwitchBubble],0.149,0.107,0.101,0.083,0.145
UGAGUGAUGUUCAAGGACUAGAUCUAAAUAAAGGAUAUAGCAUACGCUAGAAGGUUAAAAUUUCUGGAUCCCAGUUUAAACCUUU [theeternabot_sameState_KL_FMN_A_49],0.246,0.154,0.222,0.222,0.195
UGAUACCAGACGGCCGCCACUCCCGCAGGUCAAAGACCUGCGAAGAUGGUUCUUCAGUGAUGUUGGAGGACCGGGUCUGGUAUCU [FiskerMod 23 - Jieux - Exclusion - Tryptophan B],0.173,0.128,0.137,0.14,0.314
UGAUACCAGACGGCCGCCACUCCCGUAAGUCAAAGACUUACGAAGAGAGUUUUUCAGUGAUGUUGGAGGACCGGGUCUGGUAUCU [FiskerMod 16 - Jieux - Exclusion - Tryptophan B],0.838,0.618,0.87,0.85,0.721
UGAUACCAGACGGCCGCCACUGGGACCGGGAGUGAUGUUCCAAAUAAAAGAAACUCGGCCGCCACUAGGACCGGGUCUGGUAUCU [TrypBX 30 #DoubleAptamer #SwitchBubble],0.622,0.278,0.379,0.479,0.11
UGAUACCAGACGGCCGCCACUUCCGUAAGUCAAAGACUUGCCAAGGGAAUCGUCCAGUGAUGUUGGAGGACCGGGUCUGGUAUCU [FiskerMod 5 - Jieux - Exclusion - Tryptophan B],0.677,0.491,0.725,0.511,0.55
UGAUACCAGACGGCCGCCACUUCUGCAAGUCAAAGACUUGCCAAGGGAAUCGUCCAGUGAUGUUGGAGGACCGGGUCUGGUAUCU [FiskerMod 3 - Jieux - Exclusion - Tryptophan B],0.88,0.445,0.817,0.585,0.668
UGAUACCAGACUGAUACCAGCAAGUGAUGUUUGCUGAUCUAAAGCAGUCAAAGACUGCCUUGCCCUUGGCAGCAGUCUGGUAUCU [TheoBX 25 #SwitchBubble #StaticStem],0.0923,0.0817,0.0966,0.156,0.0811
UGAUACCAGACUGAUACCAGCUAGUGAUGUUAGCUAAAAUCAGGGUCAAAGACCCUGUCUGGCCCUUGGCAGCAGUCUGGUAUCU [TheoBX 10 #SwitchBubble #StaticStem],0.137,0.12,0.134,0.191,0.12
UGAUACCAGGCGGCCGCCACUCCCGCAGGUCAAAGACCUGCGAAGCUGGUUCUUCAGUGAUGUUGGAGGACCGGGCCUGGUAUCU [FiskerMod 25 - Jieux - Exclusion - Tryptophan B],0.253,0.211,0.236,0.232,0.494
UGAUAGGACAGAAGGAGCGAGGAGUGAUGUUCCUCAAAAGGUCUAGCAAAGCUAGACCCUCCUCAGGUAGGUCGCUGUCCUAUCU [ArgBX 1 #Palindromic #SwitchBubble #StaticStem],0.174,0.162,0.167,0.232,0.158
UGAUAGGACAGAAGGAGCGGAAGCUAGUCAAAGACUAGCAAACGUUAAACAGGAGUGAUGUUCCAGGUAGGUCGCUGUCCUAUCU [ArgBX 23 #SwitchBubble #StaticStem],0.124,0.115,0.126,0.133,0.119

Sequence,apparent KD of K4 kissing-loop reporter (input ligand: FMN 200 uM) [µM],apparent KD of K4 kissing-loop reporter (input ligand: arginine 13.2 mM) [µM],apparent KD of K4 kissing-loop reporter (input ligand: none) [µM],apparent KD of K4 kissing-loop reporter [1] [µM],apparent KD of K4 kissing-loop reporter [2] [µM]
UGAUAGGACAGAAGGAGCGGAAGCUAGUCAAAGACUAGCACGUUAAUAACAGGAGUGAUGUUCCAGGUAGGUCGCUGUCCUAUCU [ArgBX 24 #SwitchBubble #StaticStem],0.126,0.118,0.136,0.118,0.113
UGAUAGGACAGAAGGAGCGGAAGUGAUGUUUCCAAAAGGUAAGGUCGACAAAGUCGACCCUUCCAGGUAGGUCGCUGUCCUAUCU [ArgBX 11 #Palindromic #SwitchBubble #StaticStem],0.0885,0.102,0.0928,0.0892,0.0824
UGAUAGGACAGAAGGAGCGGCAGUGAUGUUGCCAAAAGGGUAAGGUGUCAAAAGACACCCUGCCAGGUAGGUCGCUGUCCUAUCU,0.166,0.173,0.162,0.163,0.134
UGAUAGGACAGAAGGAGCGGGCUAGUCAAAGACUAGCAAACGUUAAUAACAGGAGUGAUGUUCCAGGUAGGUCGCUGUCCUAUCU [ArgBX 25 #SwitchBubble #StaticStem],0.136,0.12,0.143,0.138,0.12
UGAUAGGACAGAAGGAGCGGUAGUGAUGUUGCCAAAAGAAUAAGGUGUCAAAAGACACCCUACCAGGUAGGUCGCUGUCCUAUCU,0.346,0.368,0.423,0.429,0.289
UGAUUGCCAGUGAUGUUGGCAUAUACUGAAGGAGCGCGUGAAAACGCAGGUAGGUCGCAGUUCCUUGCCAAUUGAUCGAAAGAUC [KL-XArg-A1],0.13,0.138,0.137,0.15,0.127
UGAUUUAACUGAAGGAGCGGCAAUAGAGAAGGAAAUAUAGUGAUGUUAUAUAAGAGAGAGAGCCAGGUAGGUCGCAGAGGGAGGA [ExArgB.F],0.181,0.128,0.137,0.171,0.151
UGCACGGGCUCGGCCGCCACUCCCGCGGGUCGGAAGGUCCGCUACUGAGUGAUGUUCGGUUGGAGGAGGACCGGGAGCCCGUGCA [#2 Exclusion - Tryptophan B Attempt #26 (HarryS)],0.135,0.109,0.104,0.104,0.0885
UGCGCUGUGUACUGAAAUGUUCUGCGGGAUACCAGAGUCUUUUUAUUCCCUUGGCAGCUUGAGUGAUGUUUGAUGCCGUUCUUGU [tffeymullin],0.494,0.279,0.513,0.521,0.435
UGGACCUGACUCGAUAAGAGUCAAUGAGAUACCAGUGACGAAAGUCACCCUUGGCAGCUCACUGCCAGUGAUGUUGGUAGGUCCU [#SwitchBubble 3 #StaticStem],1.25,0.919,1.3,0.738,1.07
UGGACGAAUAUCGAUAAGAUAUUCUGGGAUACCAGUGACGAAAGUCACCCUUGGCAGCUCAACUGCCAGUGAUGUUGGUAGUCCA [Astros-Elo-mod#3],0.238,0.142,0.218,0.162,0.165
UGGAGUUGACGAAAAGUCAACUCCCGAGAAGGAGCGGACGAAAGUCCAGGUAGGUCGCUCGCUACCAGUGAUGUUGGUACUGAAA,0.125,0.18,0.126,0.16,0.105
UGGAUAUCGUUUAGUCUGGUGAGCUCAGAUACCAGACUAGCGAUGGUCCCUUGGCAGCUGAUUACGAUUGAGUGAUGUUCAAUCG [Theo A Ex t9c],0.168,0.152,0.172,0.16,0.158
UGGCCUUAAAUUCUAGGAUUAGCGACGUACAAGGAUAUUCGUCAUCGAAGAAGGUGUAGCUAGGAGAGUGAUGUUUUCCAUCGCC [theeternabot_sameState_KL_FMN_A_15],0.64,0.449,0.549,0.576,0.504
UGGCGUUGAACCGCCGAAUCGCUGUGAGAAGGAGCGGUAAAAUUGCCAGGUAGGUCGCUCACAGCUUCACAGUGAUGUUGUGGAA [Enxeisen],0.248,0.161,0.408,0.212,0.188
UGGGAUUUGUCAGGAUAUGAGUGCAGUGAUGUUGCACUUAAUAAAGUACAUAGGCCCUGCUGGCACUCAGAAGGGACGGUGAUGC [Lalasobeer],0.122,0.0736,0.103,0.0867,0.0924
UGUACAUGUCACCGAGUGAUGUUCGACGAUACCAGACUCGAUAGAGUCCCUUGGCAGCGUAACGCAUGCCAAAGUGGCAUGUACU [#SwitchBubble 10 #K4Early],0.925,0.521,0.721,0.496,0.598
UGUACAUGUCAGCGAGUGAUGUUCGACGAUACCAGACUCGAUAGAGUCCCUUGGCAGCGUAACGCAUGCCAAACUGGCAUGUACU [#SwitchBubble 9 #K4Early],0.789,0.819,1.12,0.646,0.773
UGUACCGAGUCAGGAUAUCAAAAUAAUUGGAGUGAUGUUCCAAAUACGACUGACAAAGUCGGUCGAUGAGAAGGGACUUGGUACU [FmnBS 11 #SwitchBubble #StaticStem],0.118,0.122,0.122,0.163,0.114
UGUACCGAGUCAGGAUAUGACGACUAGUCAAAGACUGGUCGAAAAUCCAGUGAUGUUGGAAAUAAAUCAGAAGGGACUUGGUACU [FmnBS 16 #SwitchBubble #StaticStem],0.124,0.309,0.272,0.357,0.296
